Assay results as given in publication doi:10.1101/812115.
Read-outs that look alike come from different tables or passages of the source.

What was measured:
[1] = molecular target: TDP-43 C-terminal domain (TDP-43CTD) (267-414) (UniProt Q13148); test: co-sedimentation
[2] = molecular target: TDP-43 C-terminal domain (TDP-43CTD) (267-414) (UniProt Q13148); test: co-sedimentation; remark: listed apart in the source

UniProt Q13148, sequence (Q13148 267-414): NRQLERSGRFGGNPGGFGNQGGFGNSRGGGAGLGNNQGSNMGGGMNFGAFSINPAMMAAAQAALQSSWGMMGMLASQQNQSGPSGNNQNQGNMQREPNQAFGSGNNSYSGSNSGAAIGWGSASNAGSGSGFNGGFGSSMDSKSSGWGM

Substance	stoichiometry N (GRN per TDP-43CTD) [1]	stoichiometry N (GRN per TDP-43CTD) [2]
rGRN-5 (granulin-5, fully reduced) (domain or fragment)	1.1	
GRN-5 (granulin-5, oxidized) (domain or fragment)	0.75	0.73
